Values quoted from earlier work, collected in publication PMC4152934.
pKd: −log10 of the molar value.

Legend:
[1] = target: AdipoR1 (Mus musculus) (UniProt Q91VH1)
[2] = target: AdipoR2 (Mus musculus) (UniProt Q8BQS5)
Chain of UniProt Q8BQS5 (Q8BQS5 whole entry): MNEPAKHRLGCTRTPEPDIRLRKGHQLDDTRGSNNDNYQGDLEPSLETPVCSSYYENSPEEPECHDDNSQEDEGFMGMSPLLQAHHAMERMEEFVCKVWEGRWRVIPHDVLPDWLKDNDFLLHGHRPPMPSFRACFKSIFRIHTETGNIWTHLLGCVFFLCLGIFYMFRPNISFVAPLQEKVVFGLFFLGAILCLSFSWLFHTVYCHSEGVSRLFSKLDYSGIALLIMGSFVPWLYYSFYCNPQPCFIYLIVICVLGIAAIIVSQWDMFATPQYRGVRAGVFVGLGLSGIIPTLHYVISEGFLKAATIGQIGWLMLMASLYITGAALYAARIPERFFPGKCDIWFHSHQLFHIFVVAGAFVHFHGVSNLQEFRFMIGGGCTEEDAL

Chain of UniProt Q91VH1 (Q91VH1 whole entry): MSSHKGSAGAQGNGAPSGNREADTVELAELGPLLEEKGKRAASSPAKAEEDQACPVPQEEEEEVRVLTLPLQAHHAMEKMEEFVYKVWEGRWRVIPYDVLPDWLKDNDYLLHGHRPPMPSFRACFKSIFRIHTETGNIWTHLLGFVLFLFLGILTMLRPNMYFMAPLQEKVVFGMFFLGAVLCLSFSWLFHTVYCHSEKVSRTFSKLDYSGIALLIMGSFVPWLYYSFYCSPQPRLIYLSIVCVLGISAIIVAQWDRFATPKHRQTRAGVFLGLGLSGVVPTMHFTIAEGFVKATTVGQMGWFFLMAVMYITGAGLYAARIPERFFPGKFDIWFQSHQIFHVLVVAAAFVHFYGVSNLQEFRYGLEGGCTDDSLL

pKd [1]: 8.94 | pKd [2]: 7.84
Substance: globular adiponectin trimer globular domain (from UniProt Q60994)
